Where “and” joins values, the source holds several entries; their conditions need not be identical. Equal entries are not always repeated.
Key:
[1] = molecular target: ZmBAM7-S (short form of corn BAM7), full-length recombinant protein (Zea mays); experiment: SEC
[2] = molecular target: ZmBAM7-S (short form of corn BAM7), full-length recombinant protein (Zea mays); experiment: SAXS

In the case of “ZmBAM7-S (short form of corn BAM7), full-length recombinant protein (enzyme)”, the stoichiometry N [1] is reported as 4 subunits and 6 subunits and the stoichiometry N [2] is reported as 4.
